Measured values published in US20080194019.

Key:
[1] = target: MBP-AMPKa (1-312) bacterial fusion protein
[2] = target: R-T peptide library (arginine fixed at the -1 position of a threonine phosphoacceptor)
[3] = target: LxT peptide library (x-x-x-x-Leu-x-Thr-x-x-x peptides with a fixed lysine tail K-K-K)
[4] = target: T1, STRAD (human, from pCDNA4 HisMax), Q7RTN6
T1 chain: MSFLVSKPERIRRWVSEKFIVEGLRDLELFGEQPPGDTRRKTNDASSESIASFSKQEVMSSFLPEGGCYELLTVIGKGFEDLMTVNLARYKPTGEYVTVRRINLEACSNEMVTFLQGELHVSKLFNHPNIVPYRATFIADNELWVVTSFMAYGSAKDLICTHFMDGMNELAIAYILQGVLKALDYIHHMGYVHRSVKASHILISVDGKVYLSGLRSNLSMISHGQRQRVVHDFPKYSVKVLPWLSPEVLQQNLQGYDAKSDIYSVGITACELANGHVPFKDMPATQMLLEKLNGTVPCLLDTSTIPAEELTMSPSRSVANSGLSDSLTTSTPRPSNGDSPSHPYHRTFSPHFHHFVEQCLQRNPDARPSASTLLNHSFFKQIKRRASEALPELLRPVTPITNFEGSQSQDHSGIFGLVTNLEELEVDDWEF

B1: STRAD-activated LKB1 (Flag-tagged wild-type human LKB1 co-expressed with STRAD, Flag immunoprecipitate) (protein)
chain 1: MEVVDPQQLGMFTEGELMSVGMDTFIHRIDSTEVIYQPRRKRAKLIGKYLMGDLLGEGSYGKVKEVLDSETLCRRAVKILKKKKLRRIPNGEANVKKEIQLLRRLRHKNVIQLVDVLYNEEKQKMYMVMEYCVCGMQEMLDSVPEKRFPVCQAHGYFCQLIDGLEYLHSQGIVHKDIKPGNLLLTTGGTLKISDLGVAEALHPFAADDTCRTSQGSPAFQPPEIANGLDTFSGFKVDIWSAGVTLYNITTGLYPFEGDNIYKLFENIGKGSYAIPGDCGPPLSDLLKGMLEYEPAKRFSIRQIRQHSWFRKKHPPAEAPVPIPPSPDTKDRWRSMTVVPYLEDLHGADEDEDLFDIEDDIIYTQDFTVPGQVPEEEASHNGQRRGLPKAVCMNGTEAAQLSTKSRAEGRAPNPARKACSASSKIRRLSACKQQ
chain 2: MSFLVSKPERIRRWVSEKFIVEGLRDLELFGEQPPGDTRRKTNDASSESIASFSKQEVMSSFLPEGGCYELLTVIGKGFEDLMTVNLARYKPTGEYVTVRRINLEACSNEMVTFLQGELHVSKLFNHPNIVPYRATFIADNELWVVTSFMAYGSAKDLICTHFMDGMNELAIAYILQGVLKALDYIHHMGYVHRSVKASHILISVDGKVYLSGLRSNLSMISHGQRQRVVHDFPKYSVKVLPWLSPEVLQQNLQGYDAKSDIYSVGITACELANGHVPFKDMPATQMLLEKLNGTVPCLLDTSTIPAEELTMSPSRSVANSGLSDSLTTSTPRPSNGDSPSHPYHRTFSPHFHHFVEQCLQRNPDARPSASTLLNHSFFKQIKRRASEALPELLRPVTPITNFEGSQSQDHSGIFGLVTNLEELEVDDWEF
[1]
  AMPK kinase activity towards the SAMS peptide after in vitro phosphorylation by LKB1: induced AMPK kinase activity an average of 27 and 50 fold, respectively
  trans-phosphorylation of MBP-AMPKα in vitro: co-expression of LKB1 with STRAD led to a dramatic proportional increase in LKB1 autophosphorylation and trans-phosphorylation of MBP-AMPKα
[2]
  phosphorylation of degenerate peptide libraries (32P incorporation, p81 paper): Arginine in the -1 position was selected over random amino acids
[3]
  phosphorylation of degenerate peptide libraries (32P incorporation, p81 paper): leucine at the -2 position was strongly selected

B2: Flag-tagged human LKB1, kinase dead (K78I), immunoprecipitated from HT1080 cells (protein)
chain: MEVVDPQQLGMFTEGELMSVGMDTFIHRIDSTEVIYQPRRKRAKLIGKYLMGDLLGEGSYGKVKEVLDSETLCRRAVIILKKKKLRRIPNGEANVKKEIQLLRRLRHKNVIQLVDVLYNEEKQKMYMVMEYCVCGMQEMLDSVPEKRFPVCQAHGYFCQLIDGLEYLHSQGIVHKDIKPGNLLLTTGGTLKISDLGVAEALHPFAADDTCRTSQGSPAFQPPEIANGLDTFSGFKVDIWSAGVTLYNITTGLYPFEGDNIYKLFENIGKGSYAIPGDCGPPLSDLLKGMLEYEPAKRFSIRQIRQHSWFRKKHPPAEAPVPIPPSPDTKDRWRSMTVVPYLEDLHGADEDEDLFDIEDDIIYTQDFTVPGQVPEEEASHNGQRRGLPKAVCMNGTEAAQLSTKSRAEGRAPNPARKACSASSKIRRLSACKQQ
[1]
  AMPK kinase activity towards the SAMS peptide after in vitro kinase reaction with LKB1: Kinase-inactive LKB1 alone or coexpressed with STRAD was unable to activate AMPK
  in vitro phosphorylation of MBP-AMPKα (32P incorporation; phospho-Thr172 immunoblot): wild-type but not kinase-dead LKB1 immunoprecipitated from mammalian cells efficiently phosphorylated

B3: Flag-tagged human LKB1, wild-type, immunoprecipitated from HT1080 cells (protein)
chain: MEVVDPQQLGMFTEGELMSVGMDTFIHRIDSTEVIYQPRRKRAKLIGKYLMGDLLGEGSYGKVKEVLDSETLCRRAVKILKKKKLRRIPNGEANVKKEIQLLRRLRHKNVIQLVDVLYNEEKQKMYMVMEYCVCGMQEMLDSVPEKRFPVCQAHGYFCQLIDGLEYLHSQGIVHKDIKPGNLLLTTGGTLKISDLGVAEALHPFAADDTCRTSQGSPAFQPPEIANGLDTFSGFKVDIWSAGVTLYNITTGLYPFEGDNIYKLFENIGKGSYAIPGDCGPPLSDLLKGMLEYEPAKRFSIRQIRQHSWFRKKHPPAEAPVPIPPSPDTKDRWRSMTVVPYLEDLHGADEDEDLFDIEDDIIYTQDFTVPGQVPEEEASHNGQRRGLPKAVCMNGTEAAQLSTKSRAEGRAPNPARKACSASSKIRRLSACKQQ
[4]
  LKB1 autophosphorylation in vitro: co-expression of LKB1 with STRAD led to a dramatic proportional increase in LKB1 autophosphorylation
[1]
  AMPK kinase activity towards the SAMS peptide after in vitro phosphorylation by LKB1: induced AMPK kinase activity an average of 27 and 50 fold, respectively
  in vitro phosphorylation of MBP-AMPKα (32P incorporation; phospho-Thr172 immunoblot): wild-type but not kinase-dead LKB1 immunoprecipitated from mammalian cells efficiently phosphorylated a bacterially expressed maltose-binding protein (MBP) fusion product of the AMPKα catalytic subunit in vitro
SAMS peptide
  phosphorylation of the SAMS peptide (32P γ-ATP): LKB1 alone was incapable of detectably phosphorylating the SAMS peptide
